According to patent US7538195:

Target: biotinylated full-length human IGF-I receptor (human) (UniProt P08069)
Assay: ELISA titration, similar to that of the whole antibody

Chain of Fab fragment of EM164 antibody (VH): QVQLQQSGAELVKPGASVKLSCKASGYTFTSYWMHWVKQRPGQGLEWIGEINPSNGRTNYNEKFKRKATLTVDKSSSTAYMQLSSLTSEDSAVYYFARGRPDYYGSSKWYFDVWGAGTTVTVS
Chain of Fab fragment of EM164 antibody (VL): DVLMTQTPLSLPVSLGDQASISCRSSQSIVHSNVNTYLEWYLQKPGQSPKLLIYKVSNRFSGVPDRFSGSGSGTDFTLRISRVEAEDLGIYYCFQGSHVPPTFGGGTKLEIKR

Substance: Fab fragment of EM164 antibody
- Kd: 0.3 nM
